In the supplement of paper PMC12042874:
± gives the uncertainty stated by the source.

Experiment: amyloid nucleation score (Sup35N fusion, yeast selection) (log enrichment); library NNK3; higher = more nucleation; inactive = no reads after selection
In short: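 Peptides of 20 random codons, each fused to Sup35N, were expressed in psi-negative yeast. Cells were induced with 100 μM copper sulfate for 24 hours and grown 7 days at 30°C on medium lacking adenine and uracil, and plasmid inserts before and after selection were Illumina-sequenced. Nucleation scores are DiMSum log enrichments of output over input reads, centred on the mode score of non-aggregating sequences, and sequences under 100 input reads were excluded.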

Row | Substance | amyloid nucleation score
1 | HGIRYTCWRWECSNVGGSSS | inactive
2 | HGSYLMRILR | inactive
3 | HGTAGLPK | 0.807 ± 0.14
4 | HGVPSLLICWRVLNRSIFMV | inactive
5 | HHYLTHNRLVIKHHYRKYYD | inactive
6 | HIMSEGHSLAMGCTCSNNYP | inactive
7 | HIVKIRSG | inactive
8 | HIVPAVCT | inactive
9 | HKASKLVYLQWCRHECWSLV | inactive
10 | HKGAQPVKVKSGQSDTRPPS | inactive
11 | HKLAKTNRSSIIVCGNRVLL | 0.916 ± 0.11
12 | HKLVFEHRLLVGPRNVDIFL | inactive
13 | HKRLGPLHYRLICG | inactive
14 | HKYKQIWMFPEGPV | inactive
15 | HLAMWFNHLSLDCL | inactive
16 | HLGKPKEFMTIAGGLHCLML | inactive
17 | HLGYTVYSRTMRSSFVFRVL | inactive
18 | HLNTSLETLKVLMVTQPTGN | inactive
19 | HLRVRCLSF | inactive
20 | HLVRIASIRLNCDPLYRSVV | inactive
21 | HLWCKPRLWKSLFVPYD | inactive
22 | HLWHSVWYALRDSPSLGFFI | inactive
23 | HLWVNRDQWLVVLTEFSRFW | inactive
24 | HLYHENSVFQLCVCTFVYSS | 2.91 ± 0.069

Row | Substance | amyloid nucleation score
25 | HLYYAP | inactive
26 | HMIKVIVLCMMRFFIKSKNS | inactive
27 | HMLLVD | inactive
28 | HMSQYGRLCKMATLTFT | inactive
29 | HNEHILSQ | inactive
30 | HNETKLCSHMLGVMGKNCGE | inactive
31 | HNLNIHYMISRVNAYTCTFI | 2.5 ± 0.074
32 | HNLNLDGLMSKSSFTPMVLL | inactive
33 | HNLTNLVSILGNAS | inactive
34 | HNWNRFTQSILWGTYNFFVG | 2.26 ± 0.085
35 | HPYSNVWMSL | inactive
36 | HQIQLVATHPTEILHAGTSN | inactive
37 | HQKKMRFALR | inactive
38 | HRCDAWYYRS | inactive
39 | HRINWRIHTTYISTYWKKCM | inactive
40 | HRIVHDSVLKRVFDYFR | inactive
41 | HRIVTPPNDLWGVWASTV | inactive
42 | HRKSGMVIYFTVPWFMKRNC | inactive
43 | HSAYVVKWSSRTTPKFFSLW | inactive
44 | HSCFCQCVSARYCDYSSVTR | inactive
45 | HSDKCDCSAVDDLLRRVVL | inactive
46 | HSIHSDNRVLWLFDWSLSSR | inactive
47 | HSLDRKYSWRI | inactive
48 | HSLTENAKREIT | inactive

Row | Substance | amyloid nucleation score
49 | HSLVVNSSSERRYG | inactive
50 | HSMALITSSRVLVRVLTIMR | inactive
51 | HSNECFLGDSSNWWVYWAVR | inactive
52 | HSSLNGRNG | inactive
53 | HSSVDIQRFCIFYINQCVPK | 2.45 ± 0.072
54 | HSWNKCDVYAWGLCTFISWC | 0.987 ± 0.096
55 | HTCVD | inactive
56 | HTIRL | inactive
57 | HTLRWE | inactive
58 | HTSPWVELPVGISRTCDEDR | inactive
59 | HTTALIGANDSA | 0.024 ± 0.46
60 | HTWSCCYFLS | 2.54 ± 0.063
61 | HVAIPTGLSKSNSQLYS | inactive
62 | HVFCHVPNPCLVGSMLTLGD | inactive
63 | HVFSITLAVGTYLLTRLYSQ | 1.07 ± 0.1
64 | HVPGRIWDVFTRLLNEVLTN | inactive
65 | HVSQTWLGRGADSGHWPRQG | 0.325 ± 0.46
66 | HVSVFMCLCTVDTR | 1.33 ± 0.078
67 | HWTGVAELLAGYCV | inactive
68 | HYGEFHKTNCARYRYFI | inactive
69 | HYLYRNCNVAVTVRSLTV | inactive
70 | HYSAFTRQSVSSKDTDT | -0.582 ± 0.76
71 | HYTTASFDVDNPLRLLLLLQ | inactive
72 | HYTVDANNIVFYILH | 3.11 ± 0.076

Row | Substance | amyloid nucleation score
73 | HYYNSHSWATTTT | inactive
74 | IAFLAMHLFVASWFPR | inactive
75 | IAHISLQNIVDVMGPNRSMY | 1.44 ± 0.14
76 | IALIICEGLPRMRGSSGPVG | inactive
77 | IALSLLKTAKIMY | inactive
78 | IALSVDYLRFIFKNHSA | -0.464 ± 0.66
79 | IALTWDSVIYSTYLGVNFLT | 0.627 ± 0.23
80 | IANRKSGMKSTRKKESWH | inactive
81 | IAVCHLFLQYLCSRSTFMTL | inactive
82 | ICAMAYADRTFSTSKGSK | inactive
83 | ICGNPLVLLMNNSVRLG | 0.092 ± 0.64
84 | ICYTMST | inactive
85 | IDCILVTGLHVDLLEWQKRQ | 2.03 ± 0.086
86 | IDCLFRLAGYWSALWTFVLF | inactive
87 | IDDQLCQ | inactive
88 | IDFILWQFVMF | inactive
89 | IDGWRGELVMTYN | 0.025 ± 0.48
90 | IDLFRSFSLAVLVVYMSEDW | inactive
91 | IDLNMQMELHGWHRVCWGCY | 0.657 ± 0.22
92 | IDLVLFSTCVNALVVESFGG | inactive
93 | IDTISMG | inactive
94 | IDTWFISFRCMFSGNYMYFL | inactive
95 | IDVLV | inactive
96 | IDYAYGNVTNNPQKP | inactive

Row | Substance | amyloid nucleation score
97 | IEAMRNRWSFKY | inactive
98 | IEFLFMYTWWAVLNSGSK | 0.999 ± 0.2
99 | IEGSYIDMFLYSYLMSGSLI | inactive
100 | IEGVGCIFRDLGDFLRGPWG | inactive
101 | IEPIECTMA | inactive
102 | IEQPY | inactive
103 | IESIH | inactive
104 | IESVRKHGGCTAFVSSWYVM | inactive
105 | IETPSGLRKIELFMTCYYTS | 0.431 ± 0.41
106 | IEWLI | inactive
107 | IFACLHGAREVFLFQWLGFE | inactive
108 | IFACVLHVVTW | inactive
109 | IFCAKSIIGIPGTDPRCRPD | 1.5 ± 0.13
110 | IFCYPQAQS | inactive
111 | IFEVFSVNKV | inactive
112 | IFHFAATHEWYIMYYIDGSP | inactive
113 | IFHMVVLVLAGKFILVISCS | inactive
114 | IFIAKLENTVSRLFTFCFIM | inactive
115 | IFILTMSDWVFL | 1.91 ± 0.062
116 | IFIQLLPYVFSTVEVSDFVG | 0.625 ± 0.38
117 | IFNMSEYNKLECTLTLY | inactive
118 | IFNNLTGFNNKGS | inactive
119 | IFSYLEEECDPRWRGPLKPL | inactive
120 | IFTHVVEEFS | inactive
